Source: paper PMC5035230 (Biochimica et biophysica acta, 2016)
Substitutions are numbered along the chain they refer to. In names and notes the source's numbering stands.

B1: P453L-hE3 (pathogenic variant of human dihydrolipoamide dehydrogenase) (enzyme, UniProt P09622 36-509, looked up)
chain: ADQPIDADVTVIGSGPGGYVAAIKAAQLGFKTVCIEKNETLGGTCLNVGCIPSKALLNNSHYYHMAHGKDFASRGIEMSEVRLNLDKMMEQKSTAVKALTGGIAHLFKQNKVVHVNGYGKITGKNQVTATKADGGTQVIDTKNILIATGSEVTPFPGITIDEDTIVSSTGALSLKKVPEKMVVIGAGVIGVELGSVWQRLGADVTAVEFLGHVGGVGIDMEISKNFQRILQKQGFKFKLNTKVTGATKKSDGKIDVSIEAASGGKAEVITCDVLLVCIGRRPFTKNLGLEELGIELDPRGRIPVNTRFQTKIPNIYAIGDVVAGPMLAHKAEDEGIICVEGMAGGAVHIDYNCVPSVIYTHPEVAWVGKSEEQLKEEGIEYKVGKFPFAANSRAKTNADTDGMVKILGQKSTDRVLGAHILGPGAGEMVNEAALALEYGASCEDIARVCHAHLTLSEAFREANLAASFGKSINF
B2: E340K-hE3 (pathogenic variant of human dihydrolipoamide dehydrogenase) (enzyme, UniProt P09622 36-509, looked up)
chain: B1 chain with E340K, L453P
B3: I358T-hE3 (pathogenic variant of human dihydrolipoamide dehydrogenase) (enzyme, UniProt P09622 36-509, looked up)
chain: B1 chain with I358T, L453P
B4: G194C-hE3 (pathogenic variant of human dihydrolipoamide dehydrogenase) (enzyme, UniProt P09622 36-509, looked up)
chain: B1 chain with G194C, L453P
B5: I445M-hE3 (pathogenic variant of human dihydrolipoamide dehydrogenase) (enzyme, UniProt P09622 36-509, looked up)
chain: B1 chain with I445M, L453P
B6: K37E-hE3 (pathogenic variant of human dihydrolipoamide dehydrogenase) (enzyme, UniProt P09622 36-509, looked up)
chain: B1 chain with K37E, L453P
B7: R447G-hE3 (pathogenic variant of human dihydrolipoamide dehydrogenase) (enzyme, UniProt P09622 36-509, looked up)
chain: B1 chain with R447G, L453P
B8: R460G-hE3 (pathogenic variant of human dihydrolipoamide dehydrogenase) (enzyme, UniProt P09622 36-509, looked up)
chain: B1 chain with L453P, R460G
B9: D444V-hE3 (pathogenic variant of human dihydrolipoamide dehydrogenase) (enzyme, UniProt P09622 36-509, looked up)
chain: B1 chain with D444V, L453P
B10: I318T-hE3 (pathogenic variant of human dihydrolipoamide dehydrogenase) (enzyme, UniProt P09622 36-509, looked up)
chain: B1 chain with I318T, L453P

Target: the molecule itself
Experiment: HDX-MS

Binding result, binds:
B1
B2
B3
B4
B5
B6
B7
B8
B9
B10
